Test results taken from publication PMC10320249 (eBioMedicine, 2023).

How the values were obtained:
[1] = molecular target: recombinant human CD38 (soluble CD38) (Homo sapiens, UniProt P28907); assay: BLI
[2] = molecular target: CD38 expressed on the plasma membrane of tumour cell lines (Homo sapiens, UniProt P28907); assay: cell-based or functional assay

Row | Binder | Kd [1] [nM] | CD38 cyclase activity on Daudi cells, EC50 [2] [mg/L] | CD38 hydrolase activity on Daudi cells, EC50 [2] [mg/L] | CD38 cyclase activity on Daudi cells (NGD+ to cGDPR), EC50 [2] [mg/L] | CD38 hydrolase activity on Daudi cells (ε-NAD+ to ε-ADPR), EC50 [2] [mg/L]
1 | daratumumab (antibody, V domains shown) VH: EVQLLESGGGLVQPGGSLRLSCAVSGFTFNSFAMSWVRQAPGKGLEWVSAISGSGGGTYYADSVKGRFTISRDNSKNTLYLQMNSLRAEDTAVYFCAKDKILWFGEPVFDYWGQGTLVTVSS VL: not shown | 3.9 | 0.179 | 0.028 | – | –
2 | HexaBody-CD38 (GEN3014), hexamerization-enhanced human IgG1 with the E430G Fc mutation (antibody, V domains shown) VH: QVQLVQSGAEVKKPGSSVKVSCKAFGGTFSSYAISWVRQAPGQGLEWMGRIIRFLGIANYAQKFQGRVTLIADKSTNTAYMELSSLRSEDTAVYYCAGEPGERDPDAVDIWGQGTMVTVSS VL: DIQMTQSPSSLSASVGDRVTITCRASQGIRSWLAWYQQKPEKAPKSLIYAASSLQSGVPSRFSGSGSGTDFTLTISSLQPEDFATYYCQQYNSYPLTFGGGTKVEIK | 1.1 | – | – | 0.419 | 0.335
